# Conditions: Bacillus amyloliquefaciens; pH 6.3; 25 °C; Urea; Fluorescence; MES-NaOH 450 mM; reversible: yes; whole UniProt chain shown
protein,measurement,value
"Ribonuclease wild type, P00648 (protein) MMKMEGIALKKRLSWISVCLLVLVSAAGMLFSTAAKTETSSHKAHTEAQVINTFDGVADYLQTYHKLPDNYITKSEAQALGWVASKGNLADVAPGKSIGGDIFSNREGKLPGKSGRTWREADINYTSGFRNSDRILYSSDWLIYKTTDHYQTFTKIR",denaturant m value,1.93 kcal/mol/M
same,denaturant midpoint (higher = more stable),4.57 M
same,unfolding free energy,8.82 kcal/mol
